Here are results for two proteins from paper PMC8891067.

Substrate in data set [1]: CCCCCCCCCCCCCCCC(=O)SCCNC(=O)CCNC(=O)[C@H](O)C(C)(C)COP(=O)(O)OP(=O)(O)OC[C@H]1O[C@@H](n2cnc3c(N)ncnc32)[C@H](O)[C@@H]1OP(=O)(O)O
The data set can be described thus: purified protein. The note with it: 100 mM HEPES. It counts as biochemical, Caulobacter vibrioides.

Substrate in data set [2]: N[C@@H](CO)C(=O)O
As to the kind of experiment: purified protein. The note with it: 250 μM C16:0-CoA, 100 mM HEPES, 250 mM NaCl, pH 7.0, 30 °C. Format: biochemical, Caulobacter vibrioides.

B1: Spt (CCNA_01220) (Caulobacter vibrioides NA1000) (protein)
chain: MGLFDKHLAYRDAYKAIQDVGANPFKVRFDAVHSPTEGVVDGRPTILLGTNNYLGLTFDEQAIAASVKAVQERGTGTTGSRIANGSFESHVELEQELAKFYGRKHAMVFTTGYQANLGVLSTLVGRGDHLILDADSHASIYDGSRLGHAEVIRFRHNDPEDLAKRLRRLGDAPGERLIVVEGIYSMIGDVAPLKEIAAVKREMGGYLLVDEAHSMGVLGATGRGLAEAAGVEEDVDFIVGTFSKSLGAIGGFCVSDHDDFDVMRVICRPYMFTASLPPAVAASTVTALRRMIEQPELRDRLNRNAKRLYDGLTAMGFLTGPSASPIVAATMPDQERAIAMWNGLLQAGVYLNLALPPATPDSRPLLRASVSAAHTDEQIDAVLKTYGEIGAALGVIEPLKRARA
As for B1, the Km came to 110.40 ± 13.37 µM in the data set “purified protein [1]” (20 mM L-serine, 250 mM NaCl, pH 7.0, 30 °C) and 2980 ± 250 µM in the data set “purified protein [2]”.

B2: bCerS (CCNA_01212) (Caulobacter vibrioides NA1000) (protein)
chain: MPFDSTNADLSVIPVKTPAELKRFIALPARLNAKDPNWITPLFMERTDALTPKTNPFFDHAEVQLFLATRGGRDVGRISAQIDQLTPQPTEGRLDGHFGMIAAEDDPAVFNVLFRAAEDWLRARGRTHAVGPFNLSINEEVGLLVWGFDTPPMVLMGHDPVYAGPRVEEQGYAKAQDLFAYKADETGDIPEIAQRRVKRGLPSGVVLRQLDMSRYDQEVQTLTEILNDAWSDNWGFTPTTEAETRQLAKSLKQVIDQRLVWFSEIDGEAAGVVVFLPNVNEAIADLKGKLLPFGWAKLLWRLKVKGVKSARIPLMGVKKKFQTSQRGRMLPFWMMKASRDMAMSLGYNRYEISWVLEANKAMTHIAENVGGTHYKTYRVYEKAL
Take B2: the Michaelis constant (Km) in the data set “purified protein [1]” (with 3-KDS (40 μM), 150 mM NaCl, pH 7.5, 30 °C) worked out at 21.3 ± 4.1 µM.

By Km is commonly meant the concentration of substrate that gives half-maximal velocity.
